This note sets out measurements from patent US20200054723A1 (ALLAKOS, published 2020).

One may read the EC50 as the midpoint of the concentration-response curve.

B1: HCKB (antibody, human IgG1, V domains shown)
VH: EVQLVESGGGLVQPGGSLRLSCAVSGFSLTIYGAHWVRQAPGKGLEWVSVIWAGGSTNYNSALMSRFTISKDNSKNTVYLQMNSLRAEDTAVYYCARDGSSPYYYSMEYWGQGTTVTVSS
VL: EIILTQSPATLSLSPGERATLSCSATSSVSYMHWFQQKPGQAPRLWIYSTSNLASGVPARFSGSGSGTDYTLTISSLEPEDFAVYYCQQRSSYPFTFGPGTKLDIK
notes: human IgG1/kappa
B2: HFKB (antibody, human IgG1, V domains shown)
VH: B1 VH with V24A, F67L
VL: B1 VL
notes: human IgG1/kappa
B3: HCKG (antibody, human IgG1, V domains shown)
VH: B1 VH
VL: B1 VL with I3V, F35Y, W46L, V57I, Y70F
notes: human IgG1/kappa
B4: HDKA (antibody, human IgG1, V domains shown)
VH: B1 VH with V24A, V48L
VL: B1 VL with I3V, W46L, V57I, Y70F
notes: human IgG1/kappa
B5: HGKF (antibody, human IgG1, V domains shown)
VH: B1 VH with V24A, T68S
VL: B1 VL with I3V, W46L, V57I
notes: human IgG1/kappa
B6: HFKG (antibody, human IgG1, V domains shown)
VH: B1 VH with V24A, F67L
VL: B1 VL with I3V, F35Y, W46L, V57I, Y70F
notes: human IgG1/kappa
B7: HCKD (antibody, human IgG1, V domains shown)
VH: B1 VH
VL: B1 VL with I3V, V57I, Y70F
notes: human IgG1/kappa
B8: HGKA (antibody, human IgG1, V domains shown)
VH: B1 VH with V24A, T68S
VL: B1 VL with I3V, W46L, V57I, Y70F
notes: human IgG1/kappa
B9: HDKG (antibody, human IgG1, V domains shown)
VH: B1 VH with V24A, V48L
VL: B1 VL with I3V, F35Y, W46L, V57I, Y70F
notes: human IgG1/kappa
B10: HDKD (antibody, human IgG1, V domains shown)
VH: B1 VH with V24A, V48L
VL: B1 VL with I3V, V57I, Y70F
notes: human IgG1/kappa
B11: HDKB (antibody, human IgG1, V domains shown)
VH: B1 VH with V24A, V48L
VL: B1 VL
notes: human IgG1/kappa
B12: HFKE (antibody, human IgG1, V domains shown)
VH: B1 VH with V24A, F67L
VL: B1 VL with I3V, W46L, Y70F
notes: human IgG1/kappa
B13: HFKC (antibody, human IgG1, V domains shown)
VH: B1 VH with V24A, F67L
VL: B1 VL with W46L, V57I, Y70F
notes: human IgG1/kappa
B14: HGKE (antibody, human IgG1, V domains shown)
VH: B1 VH with V24A, T68S
VL: B1 VL with I3V, W46L, Y70F
notes: human IgG1/kappa
B15: HGKG (antibody, human IgG1, V domains shown)
VH: B1 VH with V24A, T68S
VL: B1 VL with I3V, F35Y, W46L, V57I, Y70F
notes: human IgG1/kappa; also called HGHG
B16: RHE E-DKE (antibody, human IgG1, V domains shown)
VH: B1 VH with V24A, S49G, E108D
VL: B1 VL with I3V, W46L, Y70F
notes: human IgG1/kappa
B17: HFKD (antibody, human IgG1, V domains shown)
VH: B1 VH with V24A, F67L
VL: B1 VL with I3V, V57I, Y70F
notes: human IgG1/kappa
B18: HCKFmut (antibody, human IgG1, V domains shown)
VH: B1 VH
VL: B1 VL with I3V, W46L, V57I, F95Y
notes: human IgG1/kappa
B19: HDKFmut (antibody, human IgG1, V domains shown)
VH: B1 VH with V24A, V48L
VL: B1 VL with I3V, W46L, V57I, F95Y
notes: human IgG1/kappa
B20: RHE E-DKA (antibody, human IgG1, V domains shown)
VH: B1 VH with V24A, S49G, E108D
VL: B1 VL with I3V, W46L, V57I, Y70F
notes: human IgG1/kappa
B21: HEKG (antibody, human IgG1, V domains shown)
VH: B1 VH with V24A, S49G
VL: B1 VL with I3V, F35Y, W46L, V57I, Y70F
notes: human IgG1/kappa
B22: HEKD (antibody, human IgG1, V domains shown)
VH: B1 VH with V24A, S49G
VL: B1 VL with I3V, V57I, Y70F
notes: human IgG1/kappa
B23: HCKE (antibody, human IgG1, V domains shown)
VH: B1 VH
VL: B1 VL with I3V, W46L, Y70F
notes: human IgG1/kappa
B24: HGKB (antibody, human IgG1, V domains shown)
VH: B1 VH with V24A, T68S
VL: B1 VL
notes: human IgG1/kappa
B25: HDKF (antibody, human IgG1, V domains shown)
VH: B1 VH with V24A, V48L
VL: B1 VL with I3V, W46L, V57I
notes: human IgG1/kappa
B26: RHE E-DKB (antibody, human IgG1, V domains shown)
VH: B1 VH with V24A, S49G, E108D
VL: B1 VL
notes: human IgG1/kappa
B27: HDKC (antibody, human IgG1, V domains shown)
VH: B1 VH with V24A, V48L
VL: B1 VL with W46L, V57I, Y70F
notes: human IgG1/kappa
B28: RHE E-DKD (antibody, human IgG1, V domains shown)
VH: B1 VH with V24A, S49G, E108D
VL: B1 VL with I3V, V57I, Y70F
notes: human IgG1/kappa
B29: HCKC (antibody, human IgG1, V domains shown)
VH: B1 VH
VL: B1 VL with W46L, V57I, Y70F
notes: human IgG1/kappa
B30: RHE E-DKF (antibody, human IgG1, V domains shown)
VH: B1 VH with V24A, S49G, E108D
VL: B1 VL with I3V, W46L, V57I
notes: human IgG1/kappa
B31: HFKFmut (antibody, human IgG1, V domains shown)
VH: B1 VH with V24A, F67L
VL: B1 VL with I3V, W46L, V57I, F95Y
notes: human IgG1/kappa
B32: HDKE (antibody, human IgG1, V domains shown)
VH: B1 VH with V24A, V48L
VL: B1 VL with I3V, W46L, Y70F
notes: human IgG1/kappa
B33: HEKB (antibody, human IgG1, V domains shown)
VH: B1 VH with V24A, S49G
VL: B1 VL
notes: human IgG1/kappa
B34: RHE E-DKC (antibody, human IgG1, V domains shown)
VH: B1 VH with V24A, S49G, E108D
VL: B1 VL with W46L, V57I, Y70F
notes: human IgG1/kappa
B35: HCKF (antibody, human IgG1, V domains shown)
VH: B1 VH
VL: B1 VL with I3V, W46L, V57I
notes: human IgG1/kappa
B36: HGKFmut (antibody, human IgG1, V domains shown)
VH: B1 VH with V24A, T68S
VL: B1 VL with I3V, W46L, V57I, F95Y
notes: human IgG1/kappa
B37: HFKF (antibody, human IgG1, V domains shown)
VH: B1 VH with V24A, F67L
VL: B1 VL with I3V, W46L, V57I
notes: human IgG1/kappa
B38: HGKD (antibody, human IgG1, V domains shown)
VH: B1 VH with V24A, T68S
VL: B1 VL with I3V, V57I, Y70F
notes: human IgG1/kappa
B39: HFKA (antibody, human IgG1, V domains shown)
VH: B1 VH with V24A, F67L
VL: B1 VL with I3V, W46L, V57I, Y70F
notes: human IgG1/kappa
B40: HGKC (antibody, human IgG1, V domains shown)
VH: B1 VH with V24A, T68S
VL: B1 VL with W46L, V57I, Y70F
notes: human IgG1/kappa
B41: HEKC (antibody, human IgG1, V domains shown)
VH: B1 VH with V24A, S49G
VL: B1 VL with W46L, V57I, Y70F
notes: human IgG1/kappa

Numbering of substitutions follows the chain as printed. Values joined by “and” are separate entries in the source; they are usually repeats but may differ in a detail not shown here. Identical values can stand only once.

For the test, the target named is T1, recombinant human Siglec-8 extracellular domain (ECD) (human, UniProt Q9NYZ4 17-363).
T1 construct: extracellular domain; also called Siglec-8 ECD; full Siglec-8 ECD
T1 sequence (Q9NYZ4 17-363): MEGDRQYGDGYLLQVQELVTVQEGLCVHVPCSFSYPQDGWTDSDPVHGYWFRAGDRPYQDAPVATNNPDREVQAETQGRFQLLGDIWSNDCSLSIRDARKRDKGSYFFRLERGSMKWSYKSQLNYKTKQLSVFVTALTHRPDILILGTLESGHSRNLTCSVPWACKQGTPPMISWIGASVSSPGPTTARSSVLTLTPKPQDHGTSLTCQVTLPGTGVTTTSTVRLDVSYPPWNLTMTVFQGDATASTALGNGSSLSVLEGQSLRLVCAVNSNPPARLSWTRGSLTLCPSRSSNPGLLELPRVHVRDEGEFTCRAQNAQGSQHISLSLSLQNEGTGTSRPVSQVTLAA
As to the kind of experiment: ELISA, coated Siglec-8 ECD. As to the method: Binding of recombinant human Siglec-8 extracellular domain (ECD) by chimeric 2E2 and chimeric 2C4 IgG1K antibodies was measured by ELISA. […] Three-fold serial dilutions of a chimeric antibody (ch2E2 or ch2C4) or mouse antibody (m2E2 or m2C4) in 0.2% BSA/TBS (starting concentration was 5000 ng/mL) was added to each coated well. The plate was incubated for 2 hours at room temperature and the wells were subsequently washed before addition of goat-anti-human Fc peroxidase conjugate (1:10000 dilution) or anti-mouse Fc peroxidase conjugate (1:30000 dilution) diluted in 0.2% BSA/TBS solution. The plate was incubated for 45 minutes at room temperature, followed by washing and addition of 30 μL K-blue HRP substrate (SkyBio Ltd) to each well. After incubation at room temperature for 15 minutes, the reaction was stopped by adding 10 μL of Red Stop solution (SkyBio Ltd) to each well. The optical density or the experimental samples was read at 650 nm using the ELISA reader PHERAStar FS (BMG Labtech).
The fully humanized antibody heavy and light chains were combined and compared with the chimeric antibody to determine if replacing the 4 Å and canonical framework residues and interface residues was sufficient to successfully humanize 2E2. Expi293 cells were co-transfected with combinations of different humanized light chain vectors in association with different humanized heavy chain vectors. Siglec-8 antigen was used to measure antibody binding by ELISA as described in Example 1.
(In general: ELISA stands for enzyme-linked immunosorbent assay.)
For B1, the EC50 was determined as 0.065 nM. B2: the EC50 is 0.099 nM.

As for B3, the EC50 stood at 0.273 nM. Next, B4: 0.067 nM; B5: 0.088 nM. To B6 belongs 0.355 nM.

For the molecule B7, the EC50 was 0.049 nM. Next, B8: 0.061 nM; B9: 0.113 nM. To B10 belongs 0.048 nM; to B11, 0.055 nM. To B12 belongs 0.104 nM; to B13, 0.063 nM; to B14, 0.116 nM. B15: the concentration giving a half-maximal response (EC50) worked out at 0.254 nM. To B16 belongs 0.364 nM; to B17, 0.058 nM; to B18, 0.078 nM. To B19 belongs 0.056 nM. For B20, the half-maximal effective concentration (EC50) came to 0.388 nM.

Turning to B21, the EC50 worked out at 0.302 nM.

As for B22, the EC50 was 0.059 nM and 0.07 nM. On to B23, for which the EC50 worked out at 0.059 nM.

For B24, the EC50 was found to be 0.134 nM. Take B25: the EC50 amounted to 0.057 nM. Next, B26: 0.289 nM; B27: 0.057 nM; B28: 0.316 nM. Next, B29: 0.058 nM; B30: 0.445 nM. To B31 belongs 0.057 nM; to B32, 0.065 nM; to B33, 0.063 nM and 0.057 nM.

Consider B34, for which the 50% effective concentration (EC50) came to 0.516 nM.

Take B35: the concentration for a half-maximal effect (EC50) came to 0.05 nM. To B36 belongs 0.062 nM.

Take B37: the EC50 came out at 0.118 nM. Next, B38: 0.047 nM. To B39 belongs 0.106 nM. Next, B40: 0.065 nM; B41: 0.069 nM and 0.065 nM.
